This note sets out measurements from article PMC3701577, “Characterization of DNA Binding Property of the HIV-1 Host Factor and Tumor Suppressor Protein Integrase Interactor 1 (INI1/hSNF5)”.

Data set [1] addresses INI1 DNA binding domain (INI1/hSNF5 amino acids 105-183) (human) (UniProt Q12824). The data set can be described thus: AUC; sedimentation equilibrium, 60 µM INI1 DBD (monomer concentration), 4°C, 13,000-28,000 rpm, 20 mM HEPES-KOH pH 7.2, 100 mM KCl, 5-7% glycerol, 1 mM DTT, absorbance at 280 nm; species analysis in SEDPHAT.
For data set [2], the target named is INI1 DBD dimer, INI1(105-183) (human, UniProt Q12824 105-183). The data set can be described thus: ITC; 30 uM dimer, 325 uM DNA in syringe; sequential model, first binding event; ITC at 25 C (buffer not stated in material; protein dialyzed in 20 mM HEPES pH 7.2, 100 mM KCl, 10% glycerol, 0.1 mM EDTA, 1 mM DTT); pull-down in 20 mM HEPES pH 7.2, 100 mM KCl, 5% glycerol, 1 mM DTT, RT 30 min then ice. The following applies: protein: recombinant; tags: His tag (pET28a), 24-aa N-terminal extension; chain copies: 2; 5' overhang 2 nt on strand 1 (AC). In general terms: Isothermal titration calorimetry measures the heat released or taken up as one component is titrated into another.
INI1 DBD dimer, INI1(105-183), sequence (Q12824 105-183): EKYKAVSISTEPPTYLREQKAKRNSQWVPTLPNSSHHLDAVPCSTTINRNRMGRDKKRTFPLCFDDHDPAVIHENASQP

Another data set has as its target INI1 DBD, INI1(105-183) (human, UniProt Q12824 105-183). As to the kind of experiment: ITC; 10 uM monomer, 55 uM DNA in syringe; one-site, N=0.49; ITC at 25 C (buffer not stated in material; protein dialyzed in 20 mM HEPES pH 7.2, 100 mM KCl, 10% glycerol, 0.1 mM EDTA, 1 mM DTT); pull-down in 20 mM HEPES pH 7.2, 100 mM KCl, 5% glycerol, 1 mM DTT, RT 30 min then ice. To be noted: protein: recombinant; tags: His tag (pET28a), 24-aa N-terminal extension; 5' overhang 2 nt on strand 1 (AC).

Another data set has as its target T1, SNR1 DBD, SNR1(90-167) (Drosophila melanogaster, UniProt Q7K0F9 90-167).
T1 sequence: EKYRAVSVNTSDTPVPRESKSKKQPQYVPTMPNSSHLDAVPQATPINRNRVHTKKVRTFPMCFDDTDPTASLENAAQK
The data set can be described thus: Ni-NTA pull-down; 55 uM dimer, 110 uM DNA; ITC at 25 C (buffer not stated in material; protein dialyzed in 20 mM HEPES pH 7.2, 100 mM KCl, 10% glycerol, 0.1 mM EDTA, 1 mM DTT); pull-down in 20 mM HEPES pH 7.2, 100 mM KCl, 5% glycerol, 1 mM DTT, RT 30 min then ice. To be noted: protein: recombinant; tags: His tag (pET28a), 37-aa N-terminal extension; chain copies: 2; 5' overhang 2 nt on strand 1 (AC).

INI1 DBD, INI1(105-183), sequence (Q12824 105-183): as the sequence (Q12824 105-183) above

For the molecule “INI1 DNA binding domain (INI1/hSNF5 amino acids 105-183) (from UniProt Q12824 105-183) (domain or fragment)”, the stoichiometry N (usually a count of units in the complex or per binding partner) in data set [1] came out at 2.

B1: U5 HIV-1 LTR DNA (U5.4/U5.5) (dsDNA)
DNA 1: ACTGCTAGAGATTTTCCGGATCC
DNA 2: GGATCCGGAAAATCTCTAGCA
Consider B1, for which the Kd (in general, the concentration at which binding is half-saturated) came out at 222 ± 51.8 µM in data set [2] and 0.94 ± 0.02 µM with INI1 DBD, INI1(105-183). Besides, the binding result with SNR1 DBD, SNR1(90-167) is “binds”.
